Consider one substance from paper PMC2113761.

The assay concerns the target FITC-labeled porcine brain tubulin (porcine) (UniProt P02550). Kind of assay: co-sedimentation.

Turning to “FITC-labeled porcine brain tubulin (from UniProt P02550 1-451) (complex)”, the fluorescence intensity (B/A) of the precipitate, labeled tubulin alone (6:0) is 27.5.
